# Measured values: patent publication US20110262525A1, “METHODS OF TREATMENT” (SCHERING CORPORATION, priority 2006, published 2011)
# Marks after values point to notes of the source that are not given here.
# B1: LCF/HCA: fully human anti-IGF1R antibody comprising the mature 19D12/15H12 light chain F (LCF) and mature heavy chain A (HCA) (antibody, V domains shown)
# VH: EVQLVQSGGGLVHPGGSLRLSCAASGFTFSSFAMHWVRQAPGKGLEWISVIDTRGATYYADSVKGRFTISRDNAKNSLYLQMNSLRAEDMAVYYCARLGNFYYGMDVWGQGTTVTVSS
# VL: EIVLTQVPDFQSVTPKEKVTITCRASQSIGSSLHWYQQKPDQSPKLLIKYASQSLSGVPSRFSGSGSGTDFTLTINSLEAEDAAAYYCHQSSRLPHTFGGGTKVEIKRT
# Experiments:
# TC-71 xenograft (Ewings) = test: PPTP in vivo xenograft TC-71; conditions: TC-71 (Ewings) xenograft, 0.5 mg per mouse ip twice weekly for four weeks
# Description: (§1) The PPTP includes a molecularly characterized in vitro panel of cell lines (n=27) and in vivo panel of xenografts (n=61) representing most of the common types of childhood solid tumors and childhood ALL (acute lymphoblastic leukemia). LCF/HCA anti-IGF1R antibody was tested against the PPTP in vitro panel at concentrations ranging from 0.01 nM to 100 nM; and was tested against the PPTP in vivo panel at a dose of 0.5 mg per mouse administered twice weekly for four weeks via intraperitoneal injection. Three measures of antitumor activity were used: 1) response criteria modeled after the clinical setting; 2) treated-to-control (T/C) tumor volume at day 21; and 3) a time to event (4-fold increase in tumor volume) measure based on the median EFS of treated and control lines (intermediate activity required EFS (event-free survival) T/C>2, and high activity additionally required a net reduction in median tumor volume at the end of the experiment).
# (§2) Stage 1 testing involved testing an agent across the entire PPTP panel of childhood cancer xenograft lines at its maximum tolerated dose (MTD) or at a dose selected based on PK/PD (pharmacokinetic/pharmacodynamic) studies using adult preclinical models.
# (§3) In vivo solid tumor testing: For each xenograft line, 10 mice bearing subcutaneous (SC) tumors initiated treatment when the tumors were between 0.2-0.5 cm^3 in volume. Two perpendicular tumor diameters were measured at once weekly intervals with digital vernier calipers. Assuming tumors to be spherical, volumes were calculated from the formula (π/6)×d3, where d represented the mean diameter.
# (§4) Drug: LCF/HCA was dissolved in 20mM sodium acetate pH 5 buffer containing 150 mM sodium chloride, and administered intraperitoneally twice weekly for 4 consecutive weeks at a dose of 0.5 mg per animal. […]
# (§5) Median Group Response: Each individual mouse in each treatment group was assigned a response score (see Tables above) and a median score for the treatment group was calculated and then each treatment group was assigned an overall response according to the table below. […]
# [1] = system: Rh18 xenograft (EMB Rhabdomyosarcoma); test: PPTP in vivo xenograft Rh18
# Description: as §1, §2, §3, §4, §5
# EW5 xenograft (Ewings) = test: PPTP in vivo xenograft EW5; design: key to EFS activity notation (high, intermediate, indeterminate): high (!); intermediate (#); indeterminate (^)
# Description: as §1, §2, §3
# (§6) Drug: LCF/HCA was dissolved in 20mM sodium acetate pH 5 buffer containing 150 mM sodium chloride, and administered intraperitoneally twice weekly for 4 consecutive weeks at a dose of 0.5 mg per animal. The antibody was provided to each testing site in coded vials for blinded testing according the PPTP's standard operating procedures.
# (§7) Median Group Response: Each individual mouse in each treatment group was assigned a response score (see Tables above) and a median score for the treatment group was calculated and then each treatment group was assigned an overall response according to the table below.
# (§8) Statistical Methods: Event-free survival (EFS) distributions of each treatment group were compared to the EFS distribution of the respective control group using the exact log rank test. P-values were 2-sided & were not adjusted for multiple comparisons given the exploratory nature of this study. P-values<0.05 were considered to be significant.
# [2] = system: ALL-19 xenograft (ALL B-precursor); test: PPTP in vivo leukemia xenograft ALL-19; conditions: ALL-19 (ALL B-precursor) xenograft; 0.5 mg per mouse ip twice weekly for four weeks
# Description: (§9) The PPTP includes a molecularly characterized in vitro panel of cell lines (n=27) and in vivo panel of xenografts (n=61) representing most of the common types of childhood solid tumors and childhood ALL (acute lymphoblastic leukemia). LCF/HCA anti-IGF1R antibody was tested against the PPTP in vitro panel at concentrations ranging from 0.01 nM to 100 nM; and was tested against the PPTP in vivo panel at a dose of 0.5 mg per mouse administered twice weekly for four weeks via intraperitoneal injection. […]
# (§10) In vivo acute lymphoblastic leukemia testing: For each xenograft line, 8 mice were inoculated with 3-5×10^6 mononuclear cells purified from the spleens of secondary recipient mice. Engraftment was monitored weekly by flow cytometry, and treatment was initiated when the proportion of human CD45+ cells in the peripheral blood reached 1%. The proportion of human CD45+ cells in the peripheral blood was monitored weekly throughout the course of treatment. […]
# as §5
# KT-13 xenograft (Wilms) = test: PPTP in vivo xenograft KT-13; conditions: KT-13 (Wilms) xenograft, 0.5 mg per mouse ip twice weekly for four weeks
# Description: as §1, §2, §3, §4, §5
# KT-11 xenograft (Wilms) = test: PPTP in vivo xenograft KT-11; conditions: KT-11 (Wilms) xenograft, 0.5 mg per mouse ip twice weekly for four weeks
# Description: as §1, §2, §3, §4, §5
# [3] = system: NB-SD xenograft (Neuroblastoma); test: PPTP in vivo xenograft NB-SD; design: key to EFS activity notation (high, intermediate, indeterminate): high (!); intermediate (#); indeterminate (^)
# Description: as §1, §2, §3, §6, §7, §8
# [4] = system: ALL-7 xenograft (ALL B-precursor); test: PPTP in vivo leukemia xenograft ALL-7; conditions: ALL-7 (ALL B-precursor) xenograft; 0.5 mg per mouse ip twice weekly for four weeks
# Description: as §9, §10, §5
# [5] = system: OS-9 xenograft (Osteosarcoma); test: PPTP in vivo xenograft OS-9; design: key to EFS activity notation (high, intermediate, indeterminate): high (!); intermediate (#); indeterminate (^); conditions: OS-9 (Osteosarcoma) xenograft, 0.5 mg per mouse ip twice weekly for four weeks
# Description: as §1, §2, §3, §6, §7, §8
# [6] = system: ALL-16 xenograft (ALL T-cell); test: PPTP in vivo leukemia xenograft ALL-16; conditions: ALL-16 (ALL T-cell) xenograft; 0.5 mg per mouse ip twice weekly for four weeks
# Description: as §9, §10, §5
# [7] = system: Rh41 xenograft (ALV Rhabdomyosarcoma); test: PPTP in vivo xenograft Rh41
# Excerpt: The PPTP includes a molecularly characterized in vitro panel of cell lines (n=27) and in vivo panel of xenografts (n=61) representing most of the common types of childhood solid tumors and childhood ALL (acute lymphoblastic leukemia).
# as §2, §3
# The antibody was provided to each testing site in coded vials for blinded testing according the PPTP's standard operating procedures.
# as §7, §8
# [8] = system: CHLA258 xenograft (Ewings); test: PPTP in vivo xenograft CHLA258; design: key to EFS activity notation (high, intermediate, indeterminate): high (!); intermediate (#); indeterminate (^)
# Description: as §1, §2, §3, §6, §7, §8
# [9] = 0.5 mg per mouse ip twice weekly for four weeks
# [10] = day 21, 0.5 mg per mouse ip twice weekly for four weeks
molecule,measurement,setting,value
B1,EFS T/C,TC-71 xenograft (Ewings),1.2
same,Median Final RTV,TC-71 xenograft (Ewings),>4
same,Tumor Volume T/C,TC-71 xenograft (Ewings); day 21,0.88
same,EFS T/C,[1]; [9],1
same,Median Final RTV,[1]; [9],>4
same,Tumor Volume T/C,[1]; [10],0.74
same,EFS T/C,EW5 xenograft (Ewings); [9],> 2.3
same,"EFS activity notation (high, intermediate, indeterminate)",EW5 xenograft (Ewings); [9],!
same,Median Final RTV,EW5 xenograft (Ewings); [9],0.4!
same,Overall Group Response,EW5 xenograft (Ewings); [9],CR* (7 < MS ≦ 9)
same,Tumor Volume T/C,EW5 xenograft (Ewings); [10],0.12
same,EFS T/C,[2],1.5
same,Median Final RTV,[2],>25
same,EFS T/C,KT-13 xenograft (Wilms),1.1
same,Median Final RTV,KT-13 xenograft (Wilms),>4
same,Tumor Volume T/C,KT-13 xenograft (Wilms); day 21,0.84
same,EFS T/C,KT-11 xenograft (Wilms),1
same,Median Final RTV,KT-11 xenograft (Wilms),>4
same,Tumor Volume T/C,KT-11 xenograft (Wilms); day 21,0.99
same,EFS T/C,[3]; [9],> 1.8
same,"EFS activity notation (high, intermediate, indeterminate)",[3]; [9],^
same,Median Final RTV,[3]; [9],3.7^
same,Overall Group Response,[3]; [9],PD2 (1 < MS ≦ 3)
same,Tumor Volume T/C,[3]; [10],0.41
same,EFS T/C,[4],1
same,Median Final RTV,[4],>25
same,EFS T/C,[5],> 1.2
same,"EFS activity notation (high, intermediate, indeterminate)",[5],^
same,Median Final RTV,[5],0.4^
same,Tumor Volume T/C,[5]; day 21,0.31
same,EFS T/C,[6],1
same,Median Final RTV,[6],>25
same,EFS T/C,[7]; [9],1.1
same,Median Final RTV,[7]; [9],>4
same,Tumor Volume T/C,[7]; [10],0.65
same,EFS T/C,[8]; [9],4.2
same,"EFS activity notation (high, intermediate, indeterminate)",[8]; [9],#
same,Median Final RTV,[8]; [9],>4#
same,Overall Group Response,[8]; [9],PD2 (1 < MS ≦ 3)
same,Tumor Volume T/C,[8]; [10],0.29
